Patent US20230183319A1

Key:
Test in all cases: cell-based or functional assay
GDF11 = molecular target: T1, GDF11 (UniProt O95390)
T1 sequence (looked up): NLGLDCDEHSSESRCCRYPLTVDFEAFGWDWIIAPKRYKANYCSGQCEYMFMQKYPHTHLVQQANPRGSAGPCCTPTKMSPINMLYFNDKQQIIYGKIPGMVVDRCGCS

BMP10 = molecular target: T2, BMP10 (UniProt O95393)
T2 sequence (looked up): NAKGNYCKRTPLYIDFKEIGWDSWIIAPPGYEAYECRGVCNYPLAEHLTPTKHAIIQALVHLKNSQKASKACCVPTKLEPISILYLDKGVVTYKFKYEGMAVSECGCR

GDF8 = molecular target: T3, GDF8 (UniProt O14793)
T3 sequence (looked up): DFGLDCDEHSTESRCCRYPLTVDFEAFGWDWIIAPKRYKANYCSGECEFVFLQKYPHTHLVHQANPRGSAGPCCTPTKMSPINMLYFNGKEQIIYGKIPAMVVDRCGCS

activin B = molecular target: T4, activin B (UniProt P09529)
T4 sequence (looked up): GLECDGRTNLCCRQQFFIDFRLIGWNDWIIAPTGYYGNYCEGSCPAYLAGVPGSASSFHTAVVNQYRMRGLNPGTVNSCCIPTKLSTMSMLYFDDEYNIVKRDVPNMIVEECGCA

activin A = molecular target: T5, activin A (UniProt P08476)
T5 sequence (looked up): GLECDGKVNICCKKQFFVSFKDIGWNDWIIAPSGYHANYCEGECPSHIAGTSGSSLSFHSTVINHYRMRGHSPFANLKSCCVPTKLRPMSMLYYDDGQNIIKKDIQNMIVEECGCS

BMP9 = molecular target: T6, BMP9 (UniProt Q9UK05)
T6 sequence (looked up): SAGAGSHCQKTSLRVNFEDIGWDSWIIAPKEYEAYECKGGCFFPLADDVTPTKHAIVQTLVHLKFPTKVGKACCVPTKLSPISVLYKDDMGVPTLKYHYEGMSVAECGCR

Chain of ActRIIB-G1Fc (SEQ ID NO: 5) (Fc fusion) (chain): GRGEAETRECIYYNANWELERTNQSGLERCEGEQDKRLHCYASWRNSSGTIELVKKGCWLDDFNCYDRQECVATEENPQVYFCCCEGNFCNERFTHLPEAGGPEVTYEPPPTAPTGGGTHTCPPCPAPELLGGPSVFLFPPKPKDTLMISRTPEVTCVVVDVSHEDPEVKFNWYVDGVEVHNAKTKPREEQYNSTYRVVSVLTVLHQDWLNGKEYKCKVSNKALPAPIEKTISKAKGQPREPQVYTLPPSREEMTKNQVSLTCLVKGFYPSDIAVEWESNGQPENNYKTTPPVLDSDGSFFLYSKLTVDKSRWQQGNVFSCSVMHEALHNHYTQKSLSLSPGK

Row | IC50 (ng/mL); A204 CAGA12 luciferase reporter (GDF11) [ng/mL] | IC50 (ng/mL); A204 CAGA12 luciferase reporter (BMP9) [ng/mL] | IC50 (ng/mL); A204 CAGA12 luciferase reporter (activin A) [ng/mL] | Substance | further results
1 |  |  |  | ActRIIB(F82T)-G1Fc (Fc fusion) | IC50 (nM); A204 CAGA12 luciferase reporter (GDF11): 0.27 nM; IC50 (nM); A204 CAGA12 luciferase reporter (BMP10): 0.07 nM; IC50 (nM); A204 CAGA12 luciferase reporter (GDF8): 2.17 nM; IC50 (nM); A204 CAGA12 luciferase reporter (activin B): 0.09 nM; IC50 (nM); A204 CAGA12 luciferase reporter (activin A): 0.1 nM
2 | 389 | 40000 |  | ActRIIB(F82W, N83A)-G1Fc (Fc fusion) | 
3 | 477 |  |  | ActRIIB(L79K)-G1Fc (Fc fusion) | 
4 | 99 | 409 | 128 | ActRIIB-Fc A24N (Fc fusion) | 
5 | 180 | 721 | 132 | ActRIIB-Fc E50K (Fc fusion) | 
6 | 638 | 3000 | 756 | ActRIIB-Fc E50P (Fc fusion) | 
7 | 71 | 359 | 198 | ActRIIB-Fc E52A (Fc fusion) | 
8 | 296 | 10000 | 762 | ActRIIB-Fc E52K (Fc fusion) | 
9 | 276 |  |  | ActRIIB-Fc F82W (Fc fusion) | 
10 | 365 | 5500 | 396 | ActRIIB-Fc K55D (Fc fusion) | 
11 | 318 | 777 | 206 | ActRIIB-Fc K55R (Fc fusion) | 
12 | 45 | 165 |  | ActRIIB-Fc K74R (Fc fusion) | 
13 | 234 |  |  | ActRIIB-Fc L79R (Fc fusion) | 
14 | 591 | 1210 |  | ActRIIB-Fc R40A (Fc fusion) | 
15 | 414 |  |  | ActRIIB-Fc Y60K (Fc fusion) | 
16 | 544 |  |  | ActRIIB-Fc Y60P (Fc fusion) | 
17 | 9 | 31 | 8 | ActRIIB-G1Fc (SEQ ID NO: 5) (Fc fusion) | IC50 (nM); A204 CAGA12 luciferase reporter (GDF11): 0.12 nM; IC50 (nM); A204 CAGA12 luciferase reporter (BMP10): 0.036 nM; IC50 (nM); A204 CAGA12 luciferase reporter (GDF8): 0.95 nM; IC50 (nM); A204 CAGA12 luciferase reporter (activin B): 0.067 nM; IC50 (nM); A204 CAGA12 luciferase reporter (BMP9): 1.82 nM; IC50 (nM); A204 CAGA12 luciferase reporter (activin A): 0.05 nM
